Laboratory results from patent publication US20070207967A1, “Peptide Inhibitors of Matrix Metalloproteinase Activity” (CTT CANCER TARGETING TECHNOLOGIES OY, priority 2004, published 2007).

Biological target: β2 integrin on THP-1 cells (human) (UniProt P05107)
Assay: THP-1 cell binding to immobilized KIM127 (competitor) with C domain 50 µg/ml

Chain of β2 integrin on THP-1 cells (human) (P05107 23-769): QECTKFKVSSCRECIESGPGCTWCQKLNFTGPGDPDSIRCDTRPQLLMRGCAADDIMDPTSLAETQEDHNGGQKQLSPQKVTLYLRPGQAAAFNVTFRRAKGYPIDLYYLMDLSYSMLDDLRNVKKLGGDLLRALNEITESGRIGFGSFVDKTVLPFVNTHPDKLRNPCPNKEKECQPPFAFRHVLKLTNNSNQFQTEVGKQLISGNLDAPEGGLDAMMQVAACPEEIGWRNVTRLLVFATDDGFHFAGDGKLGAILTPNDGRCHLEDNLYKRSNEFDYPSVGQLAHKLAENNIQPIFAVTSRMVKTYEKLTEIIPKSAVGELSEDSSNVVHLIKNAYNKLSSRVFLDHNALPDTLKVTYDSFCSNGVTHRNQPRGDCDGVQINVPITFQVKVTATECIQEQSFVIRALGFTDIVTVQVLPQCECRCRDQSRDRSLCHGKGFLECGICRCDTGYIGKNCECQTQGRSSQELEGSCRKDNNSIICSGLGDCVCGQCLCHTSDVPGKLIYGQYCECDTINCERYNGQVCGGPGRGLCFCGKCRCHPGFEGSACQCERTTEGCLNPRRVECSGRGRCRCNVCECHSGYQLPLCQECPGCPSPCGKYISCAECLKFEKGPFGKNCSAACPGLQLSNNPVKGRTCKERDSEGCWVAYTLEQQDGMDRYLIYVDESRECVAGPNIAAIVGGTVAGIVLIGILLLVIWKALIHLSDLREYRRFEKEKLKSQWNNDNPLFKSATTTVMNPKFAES

recombinant MMP-9 C-terminal hemopexin-like domain (Asp494-Asp688) (from UniProt P14780 513-707)
% inhibition of THP-1 cell binding to KIM127: 40%
